{
  "source": "patent US20130137631A1",
  "data": [
    {"target": "T1, human GIP receptor (human), P48546", "T1 chain": "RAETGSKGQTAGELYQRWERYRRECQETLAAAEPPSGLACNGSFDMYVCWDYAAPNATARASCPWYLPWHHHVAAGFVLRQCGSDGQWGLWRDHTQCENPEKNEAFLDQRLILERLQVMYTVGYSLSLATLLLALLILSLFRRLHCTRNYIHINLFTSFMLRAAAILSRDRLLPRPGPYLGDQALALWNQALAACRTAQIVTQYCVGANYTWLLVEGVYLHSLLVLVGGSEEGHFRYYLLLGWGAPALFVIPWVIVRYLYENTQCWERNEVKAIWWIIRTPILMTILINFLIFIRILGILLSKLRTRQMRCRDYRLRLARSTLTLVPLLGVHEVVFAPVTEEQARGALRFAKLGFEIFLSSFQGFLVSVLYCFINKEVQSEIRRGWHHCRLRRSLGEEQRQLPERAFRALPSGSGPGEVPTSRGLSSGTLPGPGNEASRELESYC", "test": "125I-GIP displacement, HEK-GIPR membranes", "units": {"% Inh 10 nM": "%", "IC50": "nM"}, "values": [
      {"binder": "YAEGTFISDYSIALDKIAQQEFVNWLLAQKPSSGAPPKSK (modifications not checked)", "note": "[0601GIP5097]", "% Inh 10 nM": 101},
      {"binder": "YAEGTFISDYSIALEKIRQQEFVNWLLAQKPSSGAPPNSK (modifications not checked)", "note": "[0601GIP5098]", "% Inh 10 nM": 97},
      {"binder": "HAEGTFISDYSIAMDKIHQQDFVNWLLAQKPKKIRYS (modifications not checked)", "note": "[0601GIP4838]", "% Inh 10 nM": 34.3},
      {"binder": "YAEGTFISDYSIAMDKIHQQDFVNWLLAQKPKQIRYS (modifications not checked)", "note": "[0601GIP4854]", "% Inh 10 nM": 93.5},
      {"binder": "YAEGTFISDYSIAMDKIHQQDFVNQLLAQKPKKIRYS (modifications not checked)", "note": "[0601GIP4845]", "% Inh 10 nM": 69.5},
      {"binder": "YAEGTFISDYSIAMDKIHQQDFVNWLLAQKPNKIRYS (modifications not checked)", "note": "[0601GIP4851]", "% Inh 10 nM": 87},
      {"binder": "YAEGTFISDYSIAMDKIHQQDFVNWLLAQKPKKARYS (modifications not checked)", "note": "[0601GIP4856]", "% Inh 10 nM": 83.7},
      {"binder": "YAEGTFISDYSIAMDKIHQQDFVNWLLAQKPQKIRYS (modifications not checked)", "note": "[0601GIP4853]", "% Inh 10 nM": 91},
      {"binder": "YAEGTFISDYSIAMDKIHQQDFVNWLLAQKPKKIQYS (modifications not checked)", "note": "[0601GIP4913]", "% Inh 10 nM": 92.1},
      {"binder": "YAEGTFISDYSIAMDKIHQQDFVQWLLAQKPKKIRYS (modifications not checked)", "note": "[0601GIP4865 (row r89, Gln24)]", "% Inh 10 nM": 85.6},
      {"binder": "YAEGTFISDYSIAMDKIHQQDFVNWLLAQKPKKQRYS (modifications not checked)", "note": "[0601GIP4914]", "% Inh 10 nM": 96.3},
      {"binder": "YAEGTFISDYSIAMDKIHQQDFVNWLLAQKPQQIRYS (modifications not checked)", "note": "[0601GIP4855]", "% Inh 10 nM": 78.8, "IC50": 0.72},
      {"binder": "YAEGTFISDYSIAMDKIHQQDFVNWLLAQKPKNIRYS (modifications not checked)", "note": "[0601GIP4852]", "% Inh 10 nM": 90}
    ]}
  ]
}
